According to doi:10.1101/2021.03.08.434320:

Target: H3K9me2 peptide (ITC)
Assay: ITC

fold decrease of binding in pH 6.0 against pH 7.5: 5 fold | stoichiometry N: 1
Substance: Arabidopsis thaliana AGDP3 AGD1-4 (1-290) (domain or fragment)
